The values that follow come from patent US20040214763A1 (AVENTIS PHARMA S A, published 2004).

Experiment [1] addresses p38 protein fused with an N-terminal myc epitope, expressed from pcDNA3-myc-P38 (human) (UniProt Q13155). As to the kind of experiment: cell-based or functional assay.
Experiment [2] deals with T1, p38 protein (product of the human gene JTV1) fused to the transactivating domain of GAL4, from library … (yeast; human, UniProt Q13155 1-320, limits assumed).
T1 construct: also called plasmid isolated during the screening of the two-hybrid library; fragment corresponding to the p38 protein
T1 sequence: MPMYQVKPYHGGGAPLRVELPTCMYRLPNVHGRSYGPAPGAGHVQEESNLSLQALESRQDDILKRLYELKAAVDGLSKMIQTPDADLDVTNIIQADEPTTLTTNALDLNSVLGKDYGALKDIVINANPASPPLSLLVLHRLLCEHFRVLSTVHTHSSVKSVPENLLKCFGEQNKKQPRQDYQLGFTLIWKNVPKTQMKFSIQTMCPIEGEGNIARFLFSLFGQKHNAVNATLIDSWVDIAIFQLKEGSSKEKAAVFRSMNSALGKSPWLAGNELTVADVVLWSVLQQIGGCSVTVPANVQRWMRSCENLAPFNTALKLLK
As to the kind of experiment: yeast two-hybrid, b-Gal activity assay in strain L40. As for the experimental part: A sheet of nitrocellulose is pre-placed on the Petri dish containing the separated yeast clones. This sheet is then immersed in liquid nitrogen for 30 seconds in order to rupture the yeasts and thus to release the b-galactosidase activity. After thawing, the sheet of nitrocellulose is placed, colonies facing upwards, in another Petri dish containing a Whatman paper presoaked in 1.5 ml of PBS solution (60 mM Na2HPO4, 40 mM NaH2PO4, 10 mM KCl, 1 mM MgSO4, pH 7) containing 15 μl of X-Gal (5-bromo-4-chloro-3-indolyl-b-D-galactoside) containing 40 mg/ml of N,N-dimethylformamide. The dish is then placed in an incubator at 37° C. The assay is deemed positive when the colonies on the membrane turn blue after 12 hours.
In order to determine the specificity of interaction between the fragment corresponding to the p38 protein and the central region of parkin, we carried out a two-hybrid test for specific interaction with other, non-relevant proteins. To carry out this test, we transformed the L40 strain with the control plasmids plex9-cAPP or pLex9-HaRasVal12 in place of the plasmid pLex9-Parkin (135-290), encoding, respectively, the cytoplasmic domain of APP or the HaRasVal12 protein, which are fused to the DNA-binding domain of LexA and with the plasmid isolated during the screening of the two-hybrid library. […]

Ends that are not written are not given here.

“human parkin stably overexpressed in the SH-SY5Y-VI clone (from UniProt O60260 1-465) (enzyme)” gave a proportion of transfected cells exhibiting p38 aggregates in experiment [1] of 8%.

B1: cytoplasmic domain of the APP protein fused to LexA, expressed from pLex9-cAPP (other, UniProt P05067 723-770, looked up)
chain: LKKKQYTSIHHGVVEVDAAVTPEERHLSKMQQNGYENPTYKFFEQMQN
modifications: also: fused to LexA
notes: domain: cytoplasmic domain; Control bait in the two-hybrid specificity test; also called pLex-cAPP; not shown: bacterial repressor LexA as encoded by vector pLex9 (pBTM116)
As to B1, the binding result in experiment [2] is recorded as “no binding”.
